Measured values: doi:10.1101/2025.10.03.680336 (bioRxiv, 2025)

What was measured:
mass photometry = molecular target: the molecule itself; assay: mass photometry
crystal structure = molecular target: the molecule itself; assay: crystal structure
[1] = molecular target: T1, NG-CDK5RAP2-PReM (CDK5RAP2 residues 535-639) (human, UniProt Q96SN8 535-639); assay: fluorescence microscopy of networks formed on mixing purified proteins
T1 sequence (looked up): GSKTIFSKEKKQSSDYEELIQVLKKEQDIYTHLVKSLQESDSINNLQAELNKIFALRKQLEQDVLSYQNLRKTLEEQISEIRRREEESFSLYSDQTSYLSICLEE

[2] = molecular target: T2, NG-fusion of PReMΔH1 (Cnn 462-608) (Drosophila melanogaster, UniProt P54623-2 462-608); assay: as above
T2 sequence (looked up): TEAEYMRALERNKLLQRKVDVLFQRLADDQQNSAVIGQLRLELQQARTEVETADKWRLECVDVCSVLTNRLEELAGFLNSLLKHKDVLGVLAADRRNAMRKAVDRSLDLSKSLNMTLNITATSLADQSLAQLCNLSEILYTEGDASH

[3] = molecular target: T3, full length SPD-5-GFP (C. elegans), P91349; assay: mass photometry; details: remark: other sources report otherwise
T3 chain: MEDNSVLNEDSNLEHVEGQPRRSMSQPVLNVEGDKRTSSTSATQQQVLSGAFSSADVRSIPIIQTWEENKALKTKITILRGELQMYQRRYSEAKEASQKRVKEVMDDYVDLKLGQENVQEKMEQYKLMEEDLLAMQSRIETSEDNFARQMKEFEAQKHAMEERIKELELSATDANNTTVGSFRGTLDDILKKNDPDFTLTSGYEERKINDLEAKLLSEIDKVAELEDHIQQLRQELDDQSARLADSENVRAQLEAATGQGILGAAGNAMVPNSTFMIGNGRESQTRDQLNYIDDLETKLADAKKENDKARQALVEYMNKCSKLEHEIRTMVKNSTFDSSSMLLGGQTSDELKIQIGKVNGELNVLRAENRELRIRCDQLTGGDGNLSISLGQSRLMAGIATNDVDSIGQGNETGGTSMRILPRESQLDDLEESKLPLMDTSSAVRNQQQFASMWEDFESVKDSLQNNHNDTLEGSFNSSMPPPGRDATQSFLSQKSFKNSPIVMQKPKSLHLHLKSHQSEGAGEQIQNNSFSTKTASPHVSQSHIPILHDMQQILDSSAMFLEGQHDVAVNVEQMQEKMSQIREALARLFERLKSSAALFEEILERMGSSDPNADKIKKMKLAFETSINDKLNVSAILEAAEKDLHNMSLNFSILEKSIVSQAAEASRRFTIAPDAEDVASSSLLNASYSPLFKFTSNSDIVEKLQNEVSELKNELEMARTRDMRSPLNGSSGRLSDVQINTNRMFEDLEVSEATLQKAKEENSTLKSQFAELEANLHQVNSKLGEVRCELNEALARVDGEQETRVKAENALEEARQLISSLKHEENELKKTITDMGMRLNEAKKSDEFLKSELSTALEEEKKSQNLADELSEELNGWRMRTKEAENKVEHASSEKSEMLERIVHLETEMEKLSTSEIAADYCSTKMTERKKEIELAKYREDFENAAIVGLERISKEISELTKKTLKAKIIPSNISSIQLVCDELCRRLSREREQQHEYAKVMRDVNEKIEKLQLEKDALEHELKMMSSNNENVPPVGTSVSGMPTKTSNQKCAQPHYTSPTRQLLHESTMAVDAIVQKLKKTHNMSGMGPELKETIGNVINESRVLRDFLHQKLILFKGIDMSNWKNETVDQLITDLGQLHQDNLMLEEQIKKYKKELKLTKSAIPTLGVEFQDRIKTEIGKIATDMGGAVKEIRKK

SEC-MALS = molecular target: the molecule itself; assay: SEC-MALS

B1: full length Cnn-GFP (natural protein, Drosophila melanogaster, UniProt P54623-2 1-1148, looked up)
chain: MDQSKQVLRDYCGDGNGTCASSLKEITLIETVTSFLEENGAAEIDRRVLRKLAEALSKSIDDTSPGALQDVTMENSYASFDVPRPPGGGNSPLPSQGRSVRELEEQMSALRKENFNLKLRIYFLEEGQPGARADSSTESLSKQLIDAKIEIATLRKTVDVKMELLKDAARAISHHEELQRKADIDSQAIIDELQEQIHAYQMAESGGQPVENIAKTRKMLRLESEVQRLEEELVNIEARNVAARNELEFMLAERLESLTACEGKIQELAIKNSELVERLEKETASAESSNANRDLGAQLADKICELQEAQEKLKERERIHEQACRTIQKLMQKLSSQEKEIKKLNQENEQSANKENDCAKTVISPSSSGRSMSDNEASSQEMSTNLRVRYELKINEQEEKIKQLQTEVKKKTANLQNLVNKELWEKNREVERLTKLLANQQKTLPQISEESAGEADLQQSFTEAEYMRALERNKLLQRKVDVLFQRLADDQQNSAVIGQLRLELQQARTEVETADKWRLECVDVCSVLTNRLEELAGFLNSLLKHKDVLGVLAADRRNAMRKAVDRSLDLSKSLNMTLNITATSLADQSLAQLCNLSEILYTEGDASHKTFNSHEELHAATSMAPTVENLKAENKALKKELEKRRSSEGQRKERRSLPLPSQQFDNQSESEAWSEPDRKVSLARIGLDETSNSLAAPEQAISESESEGRTCATRQDRNRNSERIAQLEEQIAQKDERMLNVQCQMVELDNRYKQEQLRCLDITQQLEQLRAINEALTADLHAIGSHEEERMVELQRQLELKNQQIDQLKLAHSTLTADSQITEMELQALQQQMQEIEQLHADSVETLQSQLQKLKLDAVQQLEEHERLHREALERDWVALTTYQEQAQQLLELQRSLDYHQENEKELKQTLVENELATRALKKQLDESTLQASKAVMERTKAYNDKLQLEKRSEELRLQLEALKEEHQKLLQKRSNSSDVSQSGYTSEEVAVPMGPPSGQATTCKQAAAAVLGQRVNTSSPDLGIESDAGRISSVEVSNAQRAMLKTVEMKTEGSASPKAKSEESTSPDSKSNVATGAATVHDCAKVDLENAELRRKLIRTKRAFEDTYEKLRMANKAKAQVEKDIKNQILKTHNVLRNVRSNMENEL
B1 was tested, and the “stoichiometry N” value (mass photometry) was 2.

B2: Cnn 490-579 2A mutant (domain or fragment, Drosophila melanogaster, UniProt P54623-2 490-579, looked up)
chain: DQQNSAVIGQLRLELQQARTEVETADKWRLECVDVCSVLTNRLEELAGFLNSLLKHKDVLGVLAADRRNAMRKAVDRALDLAKSLNMTLN
B2: binds (crystal structure).

B3: human CDK5RAP2 CM2 (residues 1812-1893) (domain or fragment, UniProt Q96SN8 1812-1893, looked up)
chain: PLHCEQIGEMKAEVTKLHKKLFEQEKKLQNTMKLLQLSKRQEKVIFDQLVVTHKILRKARGNLELRPGGAHPGTCSPSRPGS
B3: binds [1]; binds [2].

B4: full length SPD-5-GFP, P91349 1-1198 (natural protein)
chain: T3 chain
Binder B4 has a stoichiometry N [3] of 2.

B5: MBP-fusion of PReM domain construct Cnn 490-608 (domain or fragment, Drosophila melanogaster, UniProt P54623-2 490-608, looked up)
chain: DQQNSAVIGQLRLELQQARTEVETADKWRLECVDVCSVLTNRLEELAGFLNSLLKHKDVLGVLAADRRNAMRKAVDRSLDLSKSLNMTLNITATSLADQSLAQLCNLSEILYTEGDASH
B5 was tested, and the “stoichiometry N” value (SEC-MALS) was 2.

B6: MBP-fusion of PReM domain construct Cnn 462-608 (domain or fragment, Drosophila melanogaster, UniProt P54623-2 462-608, looked up)
chain: T2 sequence (looked up)
In the case of B6, the “stoichiometry N” value (SEC-MALS) is reported as 2.
